Data: IntAct's records for PubMed 26188084

B1: Serine/threonine-protein kinase PLK4 (Homo sapiens), O00444 (parent)
chain: MATCIGEKIEDFKVGNLLGKGSFAGVYRAESIHTGLEVAIKMIDKKAMYKAGMVQRVQNEVKIHCQLKHPSILELYNYFEDSNYVYLVLEMCHNGEMNRYLKNRVKPFSENEARHFMHQIITGMLYLHSHGILHRDLTLSNLLLTRNMNIKIADFGLATQLKMPHEKHYTLCGTPNYISPEIATRSAHGLESDVWSLGCMFYTLLIGRPPFDTDTVKNTLNKVVLADYEMPSFLSIEAKDLIHQLLRRNPADRLSLSSVLDHPFMSRNSSTKSKDLGTVEDSIDSGHATISTAITASSSTSISGSLFDKRRLLIGQPLPNKMTVFPKNKSSTDFSSSGDGNSFYTQWGNQETSNSGRGRVIQDAEERPHSRYLRRAYSSDRSGTSNSQSQAKTYTMERCHSAEMLSVSKRSGGGENEERYSPTDNNANIFNFFKEKTSSSSGSFERPDNNQALSNHLCPGKTPFPFADPTPQTETVQQWFGNLQINAHLRKTTEYDSISPNRDFQGHPDLQKDTSKNAWTDTKVKKNSDASDNAHSVKQQNTMKYMTALHSKPEIIQQECVFGSDPLSEQSKTRGMEPPWGYQNRTLRSITSPLVAHRLKPIRQKTKKAVVSILDSEEVCVELVKEYASQEYVKEVLQISSDGNTITIYYPNGGRGFPLADRPPSPTDNISRYSFDNLPEKYWRKYQYASRFVQLVRSKSPKITYFTRYAKCILMENSPGADFEVWFYDGVKIHKTEDFIQVIEKTGKSYTLKSESEVNSLKEEIKMYMDHANEGHRICLALESIISEEERKTRSAPFFPIIIGRKPGSTSSPKALSPPPSVDSNYPTRERASFNRMVMHSAASPTQAPILNPSMVTNEGLGLTTTASGTDISSNSLKDCLPKSAQLLKSVFVKNVGWATQLTSGAVWVQFNDGSQLVVQAGVSSISYTSPNGQTTRYGENEKLPDYIKQKLQCLSSILLMFSNPTPNFH
partner: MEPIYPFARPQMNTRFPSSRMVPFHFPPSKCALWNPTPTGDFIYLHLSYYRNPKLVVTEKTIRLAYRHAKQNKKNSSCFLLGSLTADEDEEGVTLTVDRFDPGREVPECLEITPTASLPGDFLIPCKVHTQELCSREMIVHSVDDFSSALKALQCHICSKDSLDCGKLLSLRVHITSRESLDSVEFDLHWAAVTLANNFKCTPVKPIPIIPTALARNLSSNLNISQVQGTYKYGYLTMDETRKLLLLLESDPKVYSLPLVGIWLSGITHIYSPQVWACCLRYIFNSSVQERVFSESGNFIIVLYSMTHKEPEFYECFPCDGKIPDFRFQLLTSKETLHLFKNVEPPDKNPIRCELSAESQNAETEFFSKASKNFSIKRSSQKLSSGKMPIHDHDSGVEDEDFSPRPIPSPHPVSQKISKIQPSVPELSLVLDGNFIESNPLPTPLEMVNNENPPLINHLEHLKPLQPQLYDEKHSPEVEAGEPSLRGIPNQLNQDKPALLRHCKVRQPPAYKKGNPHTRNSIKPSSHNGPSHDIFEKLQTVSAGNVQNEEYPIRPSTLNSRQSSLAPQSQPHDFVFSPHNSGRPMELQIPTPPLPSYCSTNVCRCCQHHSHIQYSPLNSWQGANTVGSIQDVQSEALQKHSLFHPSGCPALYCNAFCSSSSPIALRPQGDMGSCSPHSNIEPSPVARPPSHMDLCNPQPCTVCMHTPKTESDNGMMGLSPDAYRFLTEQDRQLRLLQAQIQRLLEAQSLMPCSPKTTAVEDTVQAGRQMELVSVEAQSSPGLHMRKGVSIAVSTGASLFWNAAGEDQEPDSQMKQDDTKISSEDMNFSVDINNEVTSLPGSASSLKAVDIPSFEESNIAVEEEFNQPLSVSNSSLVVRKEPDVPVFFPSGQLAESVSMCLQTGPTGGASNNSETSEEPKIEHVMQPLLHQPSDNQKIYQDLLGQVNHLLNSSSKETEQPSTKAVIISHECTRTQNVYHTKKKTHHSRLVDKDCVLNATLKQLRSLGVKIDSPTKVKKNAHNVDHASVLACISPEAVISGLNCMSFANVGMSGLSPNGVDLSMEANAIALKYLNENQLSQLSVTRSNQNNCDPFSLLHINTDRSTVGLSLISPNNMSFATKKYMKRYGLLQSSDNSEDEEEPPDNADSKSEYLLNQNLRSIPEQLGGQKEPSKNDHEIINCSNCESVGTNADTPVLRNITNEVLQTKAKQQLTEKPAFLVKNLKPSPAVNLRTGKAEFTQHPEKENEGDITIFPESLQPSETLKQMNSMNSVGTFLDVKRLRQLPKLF
B2: SCL-interrupting locus protein (Homo sapiens), Q15468 (parent)
chain: B1 partner
partner: B1 chain

Variants of: B1
Settings: with stil_human STIL

effect of a mutation on the interaction	Variant
with no effect	S285A;T289A

Variants of: B2
Settings: with plk4_human PLK4, O00444

effect of a mutation on the interaction	Variant
with no effect	L733E;I740E;L743E
with no effect	L733D;L736E;I740K;L743D
decreasing interaction strength	Q737K;Q739E
decreasing interaction strength	L733D;L743D
with no effect	L733D;L736E;L743D
with no effect	L733D;I740K;L743D
with no effect	L733Y;L743Y
